# Measurements: publication PMC3699456
# T1: soluble RP105 (extracellular domain of mouse RP105, residues Thr21-Ala630) (mouse)
# T1 sequence (Q62192 whole entry, looked up): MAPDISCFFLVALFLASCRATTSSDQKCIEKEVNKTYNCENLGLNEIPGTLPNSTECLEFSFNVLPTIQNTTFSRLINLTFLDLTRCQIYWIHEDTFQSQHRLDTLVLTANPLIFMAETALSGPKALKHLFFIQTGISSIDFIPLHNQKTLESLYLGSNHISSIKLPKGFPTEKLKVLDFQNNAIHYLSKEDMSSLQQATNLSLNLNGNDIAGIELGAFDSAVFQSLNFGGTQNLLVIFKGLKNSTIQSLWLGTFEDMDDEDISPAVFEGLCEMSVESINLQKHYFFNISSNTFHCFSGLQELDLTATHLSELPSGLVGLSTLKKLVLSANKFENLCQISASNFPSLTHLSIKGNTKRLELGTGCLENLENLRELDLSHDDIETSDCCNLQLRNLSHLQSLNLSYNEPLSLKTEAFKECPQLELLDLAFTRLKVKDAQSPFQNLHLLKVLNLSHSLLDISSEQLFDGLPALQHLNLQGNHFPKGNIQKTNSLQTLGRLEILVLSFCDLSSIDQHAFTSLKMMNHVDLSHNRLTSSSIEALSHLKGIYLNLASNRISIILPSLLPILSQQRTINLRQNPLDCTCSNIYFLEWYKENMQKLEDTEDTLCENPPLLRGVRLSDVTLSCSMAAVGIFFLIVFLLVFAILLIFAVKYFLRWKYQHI
# Tests used:
# [1] = molecular target: solRP105-MD1 complex (mouse) (UniProt O88188); test: SEC; Superdex 200 PC3.2/30; 50 mM Tris-Cl pH 8.0, 300 mM NaCl; 0.05 ml/min; purified solRP105 and purified solRP105-MD1 complex
# [2] = molecular target: solRP105-MD1 complex (mouse) (UniProt O88188); test: SEC-MALS; WTC-030S5 column (Wyatt); 50 mM Tris-Cl pH 8.0, 300 mM NaCl; 0.5 ml/min; purified solRP105-MD1 complex
# [3] = molecular target: T1, soluble RP105 (extracellular domain of mouse RP105, residues Thr21-Ala630) (mouse); test: as above
# Chain of solRP105-MD1 complex (O88188 whole entry, looked up, the tested form may be a part, one chain of several): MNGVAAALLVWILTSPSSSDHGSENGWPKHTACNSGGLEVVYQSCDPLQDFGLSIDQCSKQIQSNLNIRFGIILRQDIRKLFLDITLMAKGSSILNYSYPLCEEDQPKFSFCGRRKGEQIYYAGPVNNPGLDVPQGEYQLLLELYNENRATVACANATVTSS
stoichiometry N (RP105-MD1 units per complex) [1],stoichiometry N (RP105-MD1 units per complex) [2],stoichiometry N (MD1 per RP105 (2:2)) [3],Molecule
2,2,–,solRP105-MD1 complex (from UniProt O88188 20-162)
–,–,1,"mouse MD1 without its native signal sequence (residues Asp20-Ser162) (natural protein, differential N-glycosylation at Asn96 and Asn156) DHGSENGWPKHTACNSGGLEVVYQSCDPLQDFGLSIDQCSKQIQSNLNIRFGIILRQDIRKLFLDITLMAKGSSILNYSYPLCEEDQPKFSFCGRRKGEQIYYAGPVNNPGLDVPQGEYQLLLELYNENRATVACANATVTSSAAA"
